In article PMC12848000:
pKd: −log10 of the molar value.

Key:
[1] = biological target: neddylated CUL1/RBX1 (StrepII2x-^N8CUL1/RBX1), wild type (UniProt Q13616); experiment: SPR; StrepII2x-^N8CUL1/RBX1 captured on a Strep-Tactin CM5 chip (~100 RU), CSN injected in single cycle (0.625-80 nM, 80 s contact), 25 C, 10 mM HEPES pH 7.4, 150 mM NaCl, 0.05% Tween 20, 1 mM TCEP; steady-state fit, 1:1 Langmuir
[2] = biological target: non-neddylated CUL1/RBX1 (StrepII2x-CUL1/RBX1), wild type (human) (UniProt Q13616); experiment: SPR; StrepII2x-CUL1/RBX1 (non-neddylated) captured on a Strep-Tactin CM5 chip (~100 RU), CSN injected in single cycle (40-5120 nM, 180 s contact), 25 C, HBS-P+ with 1 mM TCEP; steady-state fit, 1:1 Langmuir
non-neddylated CUL1/RBX1 (StrepII2x-CUL1/RBX1), wild type (human), sequence (Q13616 whole entry, chain 1 of 2): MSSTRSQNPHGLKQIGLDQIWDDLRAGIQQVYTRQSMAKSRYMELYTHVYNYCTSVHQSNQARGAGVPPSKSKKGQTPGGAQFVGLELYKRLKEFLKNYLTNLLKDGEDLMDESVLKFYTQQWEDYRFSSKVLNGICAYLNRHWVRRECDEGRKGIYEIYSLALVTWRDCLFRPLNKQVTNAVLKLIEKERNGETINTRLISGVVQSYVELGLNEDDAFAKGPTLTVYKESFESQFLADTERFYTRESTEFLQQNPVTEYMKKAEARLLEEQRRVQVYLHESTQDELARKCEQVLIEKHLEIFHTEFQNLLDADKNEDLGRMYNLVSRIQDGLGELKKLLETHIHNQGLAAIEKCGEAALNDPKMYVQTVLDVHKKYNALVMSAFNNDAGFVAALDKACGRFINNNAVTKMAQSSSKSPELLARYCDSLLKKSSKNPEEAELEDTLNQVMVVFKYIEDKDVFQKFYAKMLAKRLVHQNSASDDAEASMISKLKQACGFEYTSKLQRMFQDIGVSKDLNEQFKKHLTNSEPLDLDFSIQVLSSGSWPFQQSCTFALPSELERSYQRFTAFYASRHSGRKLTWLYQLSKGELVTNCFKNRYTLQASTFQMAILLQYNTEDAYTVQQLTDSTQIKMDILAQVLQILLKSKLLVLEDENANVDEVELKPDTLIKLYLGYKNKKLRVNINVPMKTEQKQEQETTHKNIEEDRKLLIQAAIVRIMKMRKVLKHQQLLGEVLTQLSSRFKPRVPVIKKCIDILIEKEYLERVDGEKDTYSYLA
non-neddylated CUL1/RBX1 (StrepII2x-CUL1/RBX1), wild type (human), sequence (P62877 whole entry, chain 2 of 2, further chain): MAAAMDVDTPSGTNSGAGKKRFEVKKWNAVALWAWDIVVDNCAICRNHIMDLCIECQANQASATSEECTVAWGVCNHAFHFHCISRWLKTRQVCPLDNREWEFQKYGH

[3] = biological target: ^P32-His-PKA-N8CUL1/RBX1 (CUL1/RBX1 neddylated with His-PKA-NEDD8, 32P-labelled) (UniProt Q13616)
^P32-His-PKA-N8CUL1/RBX1 (CUL1/RBX1 neddylated with His-PKA-NEDD8, 32P-labelled), sequence (Q13616 whole entry, chain 1 of 3): as the sequence (Q13616 whole entry, chain 1 of 2) above
^P32-His-PKA-N8CUL1/RBX1 (CUL1/RBX1 neddylated with His-PKA-NEDD8, 32P-labelled), sequence (P62877 whole entry, chain 2 of 3, further chain): as the sequence (P62877 whole entry, chain 2 of 2, further chain) above
^P32-His-PKA-N8CUL1/RBX1 (CUL1/RBX1 neddylated with His-PKA-NEDD8, 32P-labelled), sequence (Q15843 1-76, chain 3 of 3, further chain): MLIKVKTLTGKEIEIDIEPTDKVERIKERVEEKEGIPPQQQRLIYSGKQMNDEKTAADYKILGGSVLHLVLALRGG

neddylated CUL1/RBX1 (StrepII2x-^N8CUL1/RBX1), wild type, sequence (Q13616 whole entry, chain 1 of 3): as the sequence (Q13616 whole entry, chain 1 of 2) above
neddylated CUL1/RBX1 (StrepII2x-^N8CUL1/RBX1), wild type, sequence (P62877 whole entry, chain 2 of 3, further chain): as the sequence (P62877 whole entry, chain 2 of 2, further chain) above
neddylated CUL1/RBX1 (StrepII2x-^N8CUL1/RBX1), wild type, sequence (Q15843 1-76, chain 3 of 3, further chain): as the sequence (Q15843 1-76, chain 3 of 3, further chain) above

Substance | pKd [1] | pKd [2] | in vitro deneddylation activity, normalised to CSN^5WT [3] [% reduction]
8CSN^5H138A (CSN^5H138A complex without CSNAP: CSN1-8, CSN5 H138A) (from UniProt Q13098 1-491; P61201 1-443; Q9UNS2 1-423; Q9BT78 1-406; Q92905 1-334; Q7L5N1 1-327; Q9H9Q2 1-264; Q99627 1-209) | 8.22 | 7.05 | 
CSN^5T105F (9CSN with CSN5 T105F) (from UniProt Q13098 1-491; P61201 1-443; Q9UNS2 1-423; Q9BT78 1-406; Q92905 1-334; Q7L5N1 1-327; Q9H9Q2 1-264; Q99627 1-209; Q8WXC6 1-57) (complex) |  |  | > 50
